From article PMC5605669, “Dimerization regulates both deaminase-dependent and deaminase-independent HIV-1 restriction by APOBEC3G” (Nature Communications, 2017) come the findings set out here.

Changes are numbered by the printed parent chain. Names and notes keep the numbering of the source.

Data set [1] concerns the molecule itself. In words: cell-based or functional assay.
Data set [2] concerns the molecule itself. In words: AFM imaging; 70 nM A3G incubated 10 min with linearized m13 ssDNA in 10 mM Tris, 2.5 mM NaCl; deposited on APTES coated mica, imaged in liquid; monomers per cluster on ssDNA from cluster volume.
Data set [3] concerns the molecule itself. The data set is described as follows: optical tweezers (single-molecule ssDNA extension); fraction of bound A3G that stays stably bound after washing with buffer, against incubation time (200 to 1000 s) at 50 nM; single exponential fit gives the oligomerization rate on ssDNA at 80 pN.

B1: APOBEC3G, wild type (enzyme, human, UniProt Q9HC16 1-384, looked up)
chain: MKPHFRNTVERMYRDTFSYNFYNRPILSRRNTVWLCYEVKTKGPSRPPLDAKIFRGQVYSELKYHPEMRFFHWFSKWRKLHRDQEYEVTWYISWSPCTKCTRDMATFLAEDPKVTLTIFVARLYYFWDPDYQEALRSLCQKRDGPRATMKIMNYDEFQHCWSKFVYSQRELFEPWNNLPKYYILLHIMLGEILRHSMDPPTFTFNFNNEPWVRGRHETYLCYEVERMHNDTWVLLNQRRGFLCNQAPHKHGFLEGRHAELCFLDVIPFWKLDLDQDYRVTCFTSWSPCFSCAQEMAKFISKNKHVSLCIFTARIYDDQGRCQEGLRTLAEAGAKISIMTYSEFKHCWDTFVDHQGCPFQPWDGLDEHSQDLSGRLRAILQNQEN
As for B1, the “deaminase activity on labeled 118-nt ssDNA after 3 min pre-incubation of 25 nM A3G with unlabeled 69-nt trap ssDNA (0.5 to 5 mM as printed), fold reduction (threefold to 13-fold)” value in data set [1] amounted to 13 fold.

B2: APOBEC3G R313A-D316A-D317A-Q318A (CTD mutant) (enzyme, human, UniProt Q9HC16 1-384, looked up)
chain: B1 chain with R313A, D316A, D317A, Q318A
notes: APOBEC3G (A3G), human, with R313A, D316A, D317A and Q318A in the C-terminal domain; The methods describe the making of A3G in general; also called RDDQ; RDDQ A3G; source: Sf9 cells (recombinant baculovirus), purified in the presence of RNase A
In the case of B2, in data set [2], the binding result is reported as “binds”.

B3: APOBEC3G F126A-W127A (NTD mutant) (enzyme, human, UniProt Q9HC16 1-384, looked up)
chain: B1 chain with F126A, W127A
notes: APOBEC3G (A3G), human, with F126A and W127A in the N-terminal domain; The methods describe the making of A3G in general; also called FW; FW A3G; source: Sf9 cells (recombinant baculovirus), purified in the presence of RNase A
On to B3, for which the “fold reduction of oligomerization rate against WT” value in data set [3] amounted to 3 fold.

B4: APOBEC3G I314A-Y315A (CTD mutant) (enzyme, human, UniProt Q9HC16 1-384, looked up)
chain: B1 chain with I314A, Y315A
notes: APOBEC3G (A3G), human, with I314A and Y315A in the C-terminal domain; The methods describe the making of A3G in general; also called IY; IY A3G; source: Sf9 cells (recombinant baculovirus), purified in the presence of RNase A
Consider B4, for which the binding result in data set [2] was “binds”.
